We go through one sequence from US8242083B2, “Kinase substrates” (PerkinElmer Health Sciences, Inc., priority 2008, dated 2012).

Common to all, as to format: biochemical
One test concerns the target T1, ZAP70 (Homo sapiens, UniProt P43403).
T1 sequence (P43403 1-619): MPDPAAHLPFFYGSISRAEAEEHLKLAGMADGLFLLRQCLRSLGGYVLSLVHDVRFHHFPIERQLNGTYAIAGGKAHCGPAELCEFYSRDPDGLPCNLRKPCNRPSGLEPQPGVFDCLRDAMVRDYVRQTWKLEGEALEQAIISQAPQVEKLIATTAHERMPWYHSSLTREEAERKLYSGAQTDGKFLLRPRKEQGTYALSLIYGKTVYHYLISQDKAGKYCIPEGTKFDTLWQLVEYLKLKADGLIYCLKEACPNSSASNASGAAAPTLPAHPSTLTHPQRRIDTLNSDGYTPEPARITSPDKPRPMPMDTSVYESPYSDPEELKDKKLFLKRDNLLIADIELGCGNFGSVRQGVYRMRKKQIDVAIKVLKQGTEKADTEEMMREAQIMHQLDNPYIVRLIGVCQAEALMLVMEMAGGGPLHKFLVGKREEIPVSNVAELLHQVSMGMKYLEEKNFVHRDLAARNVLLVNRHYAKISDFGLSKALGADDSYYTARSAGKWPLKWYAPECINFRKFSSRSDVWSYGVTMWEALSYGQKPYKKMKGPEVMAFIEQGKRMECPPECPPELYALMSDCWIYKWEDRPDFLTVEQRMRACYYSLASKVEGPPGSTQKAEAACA
The experiment in a line: TR-FRET kinase assay, ZAP70. The conditions noted are these: Kinase Concentration 4 nM; 50 nM ULight-labeled substrate, 200 micromolar ATP, 2 hours. The procedure: (§1) TR-FRET kinase assays are performed under standardized conditions: various individual kinases are incubated with 50 nM of kinase substrate BRB1 labeled with the TR-FRET acceptor dye ULight (PerkinElmer) and 200 micromolar ATP in 10 μL of kinase assay buffer (50 mM HEPES pH7.5, 10 mM MgCl2, 3 mM MnCl2, 1 mM EGTA, 2 mM DTT and 0.01% Tween-20) for 2 hours at room temperature. Reactions are stopped with EDTA, and anti-phospho-tyrosine antibodies (clone PT66) labeled with the TR-FRET europium chelate donor dye are added to a final concentration of 2 nM in a final volume of 20 μL. The TR-FRET signal emitted at 665 nm is read one hour after the addition of antibodies using a TR-FRET plate reader such as the Envision® Multilabel Plate reader (PerkinElmer). The emitted signal at 665 nm is proportional to the extent of peptide phosphorylation, Control reactions indicative of background are performed excluding ATP from the reaction.
(§2) Assay conditions are identical to those used described for FIG. 1.
A general note: In TR-FRET formats the signal depends on donor and acceptor labels being close together.

A further test addresses T2, ITK (Homo sapiens, UniProt Q08881).
T2 sequence (Q08881 1-620): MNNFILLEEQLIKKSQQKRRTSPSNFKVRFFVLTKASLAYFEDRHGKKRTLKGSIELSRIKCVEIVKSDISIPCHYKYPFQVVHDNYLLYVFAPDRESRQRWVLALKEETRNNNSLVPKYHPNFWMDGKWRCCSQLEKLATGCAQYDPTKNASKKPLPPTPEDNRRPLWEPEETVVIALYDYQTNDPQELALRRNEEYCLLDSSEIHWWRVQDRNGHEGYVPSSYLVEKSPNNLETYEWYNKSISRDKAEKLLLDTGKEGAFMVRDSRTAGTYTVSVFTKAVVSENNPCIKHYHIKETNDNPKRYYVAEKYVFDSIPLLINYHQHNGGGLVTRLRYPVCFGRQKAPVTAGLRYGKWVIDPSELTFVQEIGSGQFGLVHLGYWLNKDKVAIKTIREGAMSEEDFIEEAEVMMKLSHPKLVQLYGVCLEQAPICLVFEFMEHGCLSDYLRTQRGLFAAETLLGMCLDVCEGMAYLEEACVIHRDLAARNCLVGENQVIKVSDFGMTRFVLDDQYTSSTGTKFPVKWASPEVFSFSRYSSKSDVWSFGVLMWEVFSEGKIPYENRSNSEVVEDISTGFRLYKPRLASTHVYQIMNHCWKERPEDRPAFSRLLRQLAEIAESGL
The experiment in a line: TR-FRET kinase assay, ITK. The conditions noted are these: Kinase Concentration 0.5 nM; 50 nM ULight-labeled substrate, 200 micromolar ATP, 2 hours. The procedure:
as §1, §2

A further test has as its target LYNb (Homo sapiens, UniProt P07948). The experiment in a line: TR-FRET kinase assay, LYNb. The conditions noted are these: Kinase Concentration 1 nM; 50 nM ULight-labeled substrate, 200 micromolar ATP, 2 hours. How it is done: as §1, §2
The next test concerns 83 tyrosine kinases. The experiment in a line: Panel of 83 TR-FRET tyrosine kinase assays. The conditions noted are these: 83 tyrosine kinases tested; conditions of Example 1. How it is done:
as §1, §2
The BRB2 peptide is tested with 83 tyrosine kinases in assay conditions identical to those used for BRB1 in Example 1. Data obtained with BRB2 indicate that the peptide is phosphorylated by 65 kinases out of 83 (78%), with signal to noise ratio of >3.

Another test has as its target T3, MUSK (Homo sapiens, UniProt O15146).
T3 sequence (O15146 24-869): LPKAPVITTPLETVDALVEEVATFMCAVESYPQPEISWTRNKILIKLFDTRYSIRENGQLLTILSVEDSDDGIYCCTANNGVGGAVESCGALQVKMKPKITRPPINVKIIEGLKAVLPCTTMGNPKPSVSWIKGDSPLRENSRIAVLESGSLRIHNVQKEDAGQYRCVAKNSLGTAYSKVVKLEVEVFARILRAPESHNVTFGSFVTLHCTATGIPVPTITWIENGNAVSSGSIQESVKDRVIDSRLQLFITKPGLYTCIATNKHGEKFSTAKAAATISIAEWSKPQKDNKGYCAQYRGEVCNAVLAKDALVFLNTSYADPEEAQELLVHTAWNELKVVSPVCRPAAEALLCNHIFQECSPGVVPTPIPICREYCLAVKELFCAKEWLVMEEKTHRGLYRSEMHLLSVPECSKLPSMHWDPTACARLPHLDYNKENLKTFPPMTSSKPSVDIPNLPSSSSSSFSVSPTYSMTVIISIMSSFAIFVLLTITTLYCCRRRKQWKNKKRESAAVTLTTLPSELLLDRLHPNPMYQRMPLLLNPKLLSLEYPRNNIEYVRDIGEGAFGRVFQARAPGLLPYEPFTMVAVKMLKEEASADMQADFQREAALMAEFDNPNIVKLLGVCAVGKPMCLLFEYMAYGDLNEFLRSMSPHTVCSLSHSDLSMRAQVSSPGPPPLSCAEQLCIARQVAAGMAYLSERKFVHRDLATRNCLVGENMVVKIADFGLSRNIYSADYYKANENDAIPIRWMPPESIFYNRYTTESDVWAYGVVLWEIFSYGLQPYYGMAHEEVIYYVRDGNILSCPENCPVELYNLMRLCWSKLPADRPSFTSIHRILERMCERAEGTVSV
As to the kind of experiment: TR-FRET kinase assay, MUSK. The conditions noted are these: Kinase Concentration 1 nM; 50 nM ULight-labeled substrate, 200 micromolar ATP, 2 hours. How it is done:
as §1, §2

The target of the next test is MET (Homo sapiens, UniProt P08581). As to the kind of experiment: TR-FRET kinase assay, MET. The conditions noted are these: Kinase Concentration 0.5 nM; 50 nM ULight-labeled substrate, 200 micromolar ATP, 2 hours. The procedure:
as §1, §2

The next test deals with ROS (Homo sapiens, UniProt P08922). The experiment in a line: TR-FRET kinase assay, ROS. Conditions: Kinase Concentration 0.25 nM; 50 nM ULight-labeled substrate, 200 micromolar ATP, 2 hours. The procedure: as §1, §2
ROS, sequence (P08922 28-2347, species assumed): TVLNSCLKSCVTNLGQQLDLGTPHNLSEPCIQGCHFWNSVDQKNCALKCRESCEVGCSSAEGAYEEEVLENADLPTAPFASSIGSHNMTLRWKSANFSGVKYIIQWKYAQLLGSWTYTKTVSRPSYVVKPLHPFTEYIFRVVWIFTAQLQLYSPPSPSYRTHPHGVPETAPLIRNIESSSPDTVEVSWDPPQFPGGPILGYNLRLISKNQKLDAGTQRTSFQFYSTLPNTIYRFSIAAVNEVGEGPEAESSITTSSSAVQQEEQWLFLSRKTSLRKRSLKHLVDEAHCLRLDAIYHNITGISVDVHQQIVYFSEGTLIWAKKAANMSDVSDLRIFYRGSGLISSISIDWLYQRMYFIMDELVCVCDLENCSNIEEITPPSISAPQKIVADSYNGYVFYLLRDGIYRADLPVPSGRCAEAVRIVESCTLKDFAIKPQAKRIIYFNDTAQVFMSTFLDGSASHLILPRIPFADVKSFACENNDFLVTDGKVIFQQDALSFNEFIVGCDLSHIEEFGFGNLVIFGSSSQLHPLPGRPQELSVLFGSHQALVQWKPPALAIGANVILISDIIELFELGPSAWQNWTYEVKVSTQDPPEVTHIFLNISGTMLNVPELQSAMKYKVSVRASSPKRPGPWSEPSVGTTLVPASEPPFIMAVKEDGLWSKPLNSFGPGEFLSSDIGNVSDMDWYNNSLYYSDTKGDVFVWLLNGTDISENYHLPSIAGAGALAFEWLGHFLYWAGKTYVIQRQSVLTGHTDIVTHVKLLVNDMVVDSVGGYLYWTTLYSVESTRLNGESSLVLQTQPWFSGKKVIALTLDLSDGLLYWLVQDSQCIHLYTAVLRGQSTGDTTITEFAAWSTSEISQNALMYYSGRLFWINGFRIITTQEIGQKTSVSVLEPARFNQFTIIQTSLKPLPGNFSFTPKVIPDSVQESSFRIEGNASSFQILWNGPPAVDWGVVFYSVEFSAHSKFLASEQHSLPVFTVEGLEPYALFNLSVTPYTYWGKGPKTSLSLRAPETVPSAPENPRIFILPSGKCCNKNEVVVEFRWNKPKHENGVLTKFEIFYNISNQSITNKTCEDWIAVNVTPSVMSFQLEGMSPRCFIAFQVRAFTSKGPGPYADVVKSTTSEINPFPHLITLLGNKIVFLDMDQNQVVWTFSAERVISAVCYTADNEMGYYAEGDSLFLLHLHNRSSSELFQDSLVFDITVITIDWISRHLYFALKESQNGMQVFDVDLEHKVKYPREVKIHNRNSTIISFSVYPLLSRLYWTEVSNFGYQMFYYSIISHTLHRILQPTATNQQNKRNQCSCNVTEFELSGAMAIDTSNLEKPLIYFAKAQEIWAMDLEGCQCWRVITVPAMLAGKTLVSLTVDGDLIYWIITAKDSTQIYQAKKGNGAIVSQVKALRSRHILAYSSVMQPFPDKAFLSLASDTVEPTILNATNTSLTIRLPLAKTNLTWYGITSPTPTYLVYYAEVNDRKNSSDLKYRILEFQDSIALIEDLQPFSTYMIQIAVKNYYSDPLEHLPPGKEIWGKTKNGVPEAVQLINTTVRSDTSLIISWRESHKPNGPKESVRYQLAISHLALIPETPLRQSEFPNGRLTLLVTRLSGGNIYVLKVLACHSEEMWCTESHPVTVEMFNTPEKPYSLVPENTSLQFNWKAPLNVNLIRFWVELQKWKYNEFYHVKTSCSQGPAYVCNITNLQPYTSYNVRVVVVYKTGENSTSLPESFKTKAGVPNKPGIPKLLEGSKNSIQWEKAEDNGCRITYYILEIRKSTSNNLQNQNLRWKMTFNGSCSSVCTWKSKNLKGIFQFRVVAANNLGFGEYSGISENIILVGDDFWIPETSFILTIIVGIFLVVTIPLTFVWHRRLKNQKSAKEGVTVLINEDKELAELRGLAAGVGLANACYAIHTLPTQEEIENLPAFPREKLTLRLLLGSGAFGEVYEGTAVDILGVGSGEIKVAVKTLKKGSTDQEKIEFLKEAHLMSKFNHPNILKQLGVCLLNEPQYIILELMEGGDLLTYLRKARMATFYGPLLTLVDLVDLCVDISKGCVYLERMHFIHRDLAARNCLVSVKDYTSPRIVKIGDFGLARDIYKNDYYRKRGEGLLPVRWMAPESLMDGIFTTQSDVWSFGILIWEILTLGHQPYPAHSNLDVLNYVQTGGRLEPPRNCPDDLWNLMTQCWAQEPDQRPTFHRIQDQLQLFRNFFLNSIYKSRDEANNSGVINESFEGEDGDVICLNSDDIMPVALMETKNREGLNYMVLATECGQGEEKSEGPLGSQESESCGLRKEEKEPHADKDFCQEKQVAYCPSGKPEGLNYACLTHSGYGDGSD

MET, sequence (P08581 25-1390): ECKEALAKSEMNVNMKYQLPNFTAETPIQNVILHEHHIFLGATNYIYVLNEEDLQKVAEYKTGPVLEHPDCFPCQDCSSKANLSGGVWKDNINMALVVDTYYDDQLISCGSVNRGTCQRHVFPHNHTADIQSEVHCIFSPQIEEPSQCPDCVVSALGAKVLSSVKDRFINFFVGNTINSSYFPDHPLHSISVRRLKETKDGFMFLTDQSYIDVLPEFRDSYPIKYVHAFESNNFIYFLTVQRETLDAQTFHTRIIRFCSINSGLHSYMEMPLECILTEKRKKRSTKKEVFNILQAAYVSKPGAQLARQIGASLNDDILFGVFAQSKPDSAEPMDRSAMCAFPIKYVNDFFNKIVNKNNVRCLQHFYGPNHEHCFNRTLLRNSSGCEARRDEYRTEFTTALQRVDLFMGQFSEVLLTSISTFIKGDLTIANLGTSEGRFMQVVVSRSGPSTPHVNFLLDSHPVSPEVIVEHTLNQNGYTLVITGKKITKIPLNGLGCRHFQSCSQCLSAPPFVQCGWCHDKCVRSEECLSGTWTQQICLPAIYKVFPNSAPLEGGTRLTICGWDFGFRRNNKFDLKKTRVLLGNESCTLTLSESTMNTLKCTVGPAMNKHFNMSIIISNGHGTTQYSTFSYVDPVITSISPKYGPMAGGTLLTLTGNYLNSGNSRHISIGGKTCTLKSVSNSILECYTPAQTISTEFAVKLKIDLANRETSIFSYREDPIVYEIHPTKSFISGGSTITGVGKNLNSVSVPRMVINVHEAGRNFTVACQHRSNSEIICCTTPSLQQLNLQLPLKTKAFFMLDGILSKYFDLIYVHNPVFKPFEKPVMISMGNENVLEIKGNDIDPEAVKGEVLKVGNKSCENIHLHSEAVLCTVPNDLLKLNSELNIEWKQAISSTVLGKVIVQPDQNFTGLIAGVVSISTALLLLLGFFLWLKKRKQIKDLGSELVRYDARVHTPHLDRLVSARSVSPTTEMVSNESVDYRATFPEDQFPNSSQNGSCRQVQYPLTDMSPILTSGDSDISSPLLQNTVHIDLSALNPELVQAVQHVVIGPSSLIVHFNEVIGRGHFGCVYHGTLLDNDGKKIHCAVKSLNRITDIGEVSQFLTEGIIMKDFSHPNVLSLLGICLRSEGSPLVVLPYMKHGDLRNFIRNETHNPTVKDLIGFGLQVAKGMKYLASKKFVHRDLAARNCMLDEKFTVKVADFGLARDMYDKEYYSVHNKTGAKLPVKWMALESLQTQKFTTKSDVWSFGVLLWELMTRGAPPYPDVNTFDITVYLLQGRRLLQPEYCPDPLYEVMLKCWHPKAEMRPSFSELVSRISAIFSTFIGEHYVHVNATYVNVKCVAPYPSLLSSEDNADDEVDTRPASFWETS
LYNb, sequence (P07948 1-491 isoform P07948-2, species assumed): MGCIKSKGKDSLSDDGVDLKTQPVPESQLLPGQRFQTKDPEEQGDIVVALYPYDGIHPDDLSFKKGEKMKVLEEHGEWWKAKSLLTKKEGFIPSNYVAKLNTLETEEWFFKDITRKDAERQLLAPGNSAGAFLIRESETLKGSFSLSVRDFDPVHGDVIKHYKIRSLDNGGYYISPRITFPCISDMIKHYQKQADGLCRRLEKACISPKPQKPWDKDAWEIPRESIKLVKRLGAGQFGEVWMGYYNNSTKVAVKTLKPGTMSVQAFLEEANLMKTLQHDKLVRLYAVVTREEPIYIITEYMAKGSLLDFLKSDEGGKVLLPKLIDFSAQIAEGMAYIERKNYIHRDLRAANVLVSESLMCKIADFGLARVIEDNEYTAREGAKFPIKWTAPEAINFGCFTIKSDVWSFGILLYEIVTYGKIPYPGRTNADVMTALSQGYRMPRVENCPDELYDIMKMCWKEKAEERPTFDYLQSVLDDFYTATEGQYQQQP

Turning to “C AYE AYE AYE K EYA EYA EYA K AYA EYE R (CAYEAYEAYEKEYAEYAEYAKAYAEYER; tyrosine kinase substrate peptide) [BRB1]”, the “Signal to Noise ratio with BRB1 Peptide” value in the test with ZAP70 turned out to be 7.6; with ITK, 8.4; in the test with LYNb, 33.1; with MUSK, 3.1; with MET, 24.2; in the test with ROS, 24.5. The “Number of kinases out of 83 that phosphorylated the peptide with signal to noise ratio of >3” value in the test on 83 tyrosine kinases amounted to 72. Further, the “Percentage of 83 kinases that phosphorylated the peptide with signal to noise ratio of >3” value in the test on 83 tyrosine kinases stood at 87%.
